According to patent US8889620B2, “Pharmaceutical compositions comprising peptide antagonists of vascular endothelial growth factor” (Children's Medical Center Corporation, priority 1997, dated 2014):
Where no end group is shown, it is not given here.

Legend:
[1] = biological target: T1, KDR/Flk-1 and VEGF165R on HUVEC (Homo sapiens, UniProt O14786); experiment: Inhibition of 125I-VEGF165 binding to HUVEC; details: 125I-VEGF165 5 ng/ml, increasing concentrations of fusion protein, FIG. 3A
T1 construct: HUVEC, which express both KDR/Flk-1 and VEGF165R; endogenous in cells; host or cells: HUVEC (ATCC)
Experimental: (§1) FIGS. 3A-3C. Inhibition of ^125I-VEGF165 binding to HUVEC, MDA MB 231 cells, and PAE-KDR cells by GST-EX 7+8. ^125I-VEGF165 (5 ng,/ml) was bound to subconfluent cultures of HUVEC (3A), MDA MB 23 1 cells (3B), and PAE-KDR cells (3C) in 48-well dishes in the presence of increasing amounts of GST-Ex 7+8 (closed 20 square) or control GST protein (open squares). At the end of a 2-h incubation, the cells were washed and lysed, and the cell-associated radioactivity was determined with a γ-counter. The counts obtained are expressed as the percentage of the counts obtained in the presence of PBS without addition of GST or fusion protein.
FIGS. 5A and 5B. Localization of a core inhibitory region within exon 7. GST-Ex 7 fusion proteins containing full-length exon 7-encoded domain or truncations at the N-terminal and C-terminal ends were prepared as described in the Examples. ^125I-VEGF165 (5 ng/ml) was bound to subconfluent HUVEC cultures as described in FIG. 3, in the presence of increasing concentrations of the GST fusion proteins. At the end of a 2-h incubation, the cells were washed and lysed, and the cell-associated radioactivity was determined with a y counter. The counts obtained are expressed as percentage of the counts obtained in the presence of PBS without fusion protein B, the amino acid sequences of VEGF exon 7 derivatives. These derivatives were prepared to contain the first cysteine residue of exon 8 at their C termini to keep an even number of cysteine residue. FIG. 5B discloses SEQ ID NO: 19.
(§2) Binding and cross-linking experiments using 125I-VEGF165 and 125I-VEGF121 were performed at described previously (Gitay-Goren, et al., J. Biol. Chem., 287, 6003-6096 (1992), Soker, et al., J: Biol. Chem., 271,5761-5767 (1996)). VEGF binding was quantified by measuring the cell-associated radioactivity in a y-counter (Beckman, Gamma 5500). The counts represent the average of three walls. All experiments were repeated at least three times, and similar results were obtained. 125I-VEGF cross-linked complexes were resolved by 6% SDS-PAGE, and the gels were exposed to a phosphor screen and scanned after 24 h by a PhosphorImager (Molecular Dynamics). Subsequently, the gels were exposed to x-ray film.

[2] = biological target: T2, VEGF165R on 231 cells (Homo sapiens, UniProt O14786); experiment: Inhibition of 125I-VEGF165 binding to MDA-MB-231 (231) cells
T2 construct: to 231 cells which express only VEGF165R; endogenous in cells; host or cells: MDA-MB-231 (ATCC)
Experimental: as §1, §2

[3] = biological target: T3, KDR/Flk-1 on PAE-KDR cells (Homo sapiens, UniProt P35968); experiment: Inhibition of 125I-VEGF165 binding to PAE-KDR cells; design: species or system porcine endothelial cells transfected to express KDR/Flk-1; details: 125I-VEGF165 5 ng/ml, FIG. 3C
T3 construct: expressed in transfected cells; host or cells: porcine endothelial cells (PAE), gift of Dr. Claesson-Welsh
Experimental: as §1
Human umbilical vein endothelial cells (HUVEC) were obtained from the American Type Culture Collection (ATCC) (Rockville, Md.) and grown on gelatin-coated dishes in M-199 medium containing 20% fetal calf serum (FCS) and a mixture of glutamine, penicillin, and streptomycin (GPS). Basic FGF (1 nglml) was added to the culture medium every other day. Porcine endothelial cells (PAE), parental and transfected to express KDRElk-1 (PAE-KDR), were kindly provided by Dr. Lema Claesson-Welsh and grown in F12 medium containing 10% FCS and GPS as described (Waltenberger, et al., J. Biol. Chem., 269,26988-26995 (1994)). MDAMB-231 (231) cells were obtained from ATCC and grown in Bulbecoo's modified Eagle's medium containing 10% FCS and GPS.
as §2

[4] = tested on: VEGF121-induced proliferation of HUVEC; experiment: Inhibition of VEGF121-stimulated HUVEC proliferation; format: cell-based, human
Experimental: FIG. 7. GST-Ex 7+8 fusion protein inhibits VEGF165 and VEGF121-stimulated HUVEC proliferation. Increasing concentration of VEGF165 (circles) or VEGF121 (square) with 15 ug/ml GST-Ex 7+8 (closed symbols) or without GST-Ex 7+8 (open symbols) were added to HUVEC, and [*H]thymidine incorporation into the DNA was measured as in FIG. 2. The results represent the average counts of three wells and the standard deviations were determined.
HUVEC were seeded in gelatin-coated 96-well dishes at 4,000 cells/200 Ul/well in M-199 containing 5% FCS and GPS. After 24 H, VEGF isoforms and VEGF exon 7-GST fusion proteins were added to the wells at the same time. The cells were incubated for 72 h, and [3H]thymidine (1 pC/ml) was added for 10-12 h. The medium was aspirated, and the cells were trypsinized and harvested by an automatic cell harvester (TOMTEC) and loaded onto Filtermats (Wallac). The Filtermats were scanned and cpm were determined by a MicroBeta counter (Wallac). The results represent the average of samples assayed in triplicate, and the standard derivations were determined. All experiments were repeated at least three times and similar results were obtained.

[5] = biological target: KDR/Flk-1 (Homo sapiens, UniProt P35968); experiment: Direct binding/cross-linking of 125I-GST-Ex 7 to HUVEC: KDR/Flk-1; design: HUVEC, which express both KDR/Flk-1 and VEGF165R; endogenous in cells; host or cells: HUVEC (ATCC); details: cross-linking, 1 ug/ml heparin, FIG. 1 lane 3
Experimental: FIG. 1. Cross-linking of 1 ^125I-VEGF165, ^125I-VEGF121 and ^125I-GST-EX 7 to HUVEC. ^125I-VEGF165 (5 ng/ml) (lane 1) or ^125I-VEGF121 (10 ng/ml) (lane 2) or ^125I-GST-EX 7 (50 nglml) (lane 3) were bound to subconfluent cultures of HUVEC in 6-cm dishes. The binding was carried out in the presence of 1 ug/ml heparin. At the end of a 2-H incubation, each ^125I-VEGF isoform was chemically cross-linked to the cell surface. The cells were lysed and proteins were resolved by 6% SDS-PAGE. The polyacrylamide gel was dried and exposed to x-ray film.
as §2

T2 sequence (O14786 22-923): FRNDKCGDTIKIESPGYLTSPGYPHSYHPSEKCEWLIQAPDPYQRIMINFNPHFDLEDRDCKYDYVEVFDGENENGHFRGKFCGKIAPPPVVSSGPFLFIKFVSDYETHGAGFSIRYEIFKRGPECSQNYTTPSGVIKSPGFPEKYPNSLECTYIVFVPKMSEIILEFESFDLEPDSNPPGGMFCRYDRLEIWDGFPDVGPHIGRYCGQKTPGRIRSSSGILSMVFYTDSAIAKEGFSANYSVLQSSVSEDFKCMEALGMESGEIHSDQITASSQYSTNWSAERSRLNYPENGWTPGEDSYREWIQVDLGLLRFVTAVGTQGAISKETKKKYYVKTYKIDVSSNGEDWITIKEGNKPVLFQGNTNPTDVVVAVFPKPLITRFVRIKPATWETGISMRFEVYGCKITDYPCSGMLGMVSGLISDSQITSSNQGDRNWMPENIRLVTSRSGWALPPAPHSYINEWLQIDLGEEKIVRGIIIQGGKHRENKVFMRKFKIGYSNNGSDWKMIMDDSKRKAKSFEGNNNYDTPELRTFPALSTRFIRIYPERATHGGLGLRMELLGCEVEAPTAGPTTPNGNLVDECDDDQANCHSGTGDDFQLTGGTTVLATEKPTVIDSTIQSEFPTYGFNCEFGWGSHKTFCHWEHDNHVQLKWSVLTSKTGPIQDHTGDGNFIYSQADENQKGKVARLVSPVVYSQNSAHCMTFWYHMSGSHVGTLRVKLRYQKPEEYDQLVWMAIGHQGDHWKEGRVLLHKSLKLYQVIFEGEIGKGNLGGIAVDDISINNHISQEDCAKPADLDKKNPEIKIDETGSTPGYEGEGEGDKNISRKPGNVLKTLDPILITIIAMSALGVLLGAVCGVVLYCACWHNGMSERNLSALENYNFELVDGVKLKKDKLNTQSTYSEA
Sequence of KDR/Flk-1 (P35968 20-1356): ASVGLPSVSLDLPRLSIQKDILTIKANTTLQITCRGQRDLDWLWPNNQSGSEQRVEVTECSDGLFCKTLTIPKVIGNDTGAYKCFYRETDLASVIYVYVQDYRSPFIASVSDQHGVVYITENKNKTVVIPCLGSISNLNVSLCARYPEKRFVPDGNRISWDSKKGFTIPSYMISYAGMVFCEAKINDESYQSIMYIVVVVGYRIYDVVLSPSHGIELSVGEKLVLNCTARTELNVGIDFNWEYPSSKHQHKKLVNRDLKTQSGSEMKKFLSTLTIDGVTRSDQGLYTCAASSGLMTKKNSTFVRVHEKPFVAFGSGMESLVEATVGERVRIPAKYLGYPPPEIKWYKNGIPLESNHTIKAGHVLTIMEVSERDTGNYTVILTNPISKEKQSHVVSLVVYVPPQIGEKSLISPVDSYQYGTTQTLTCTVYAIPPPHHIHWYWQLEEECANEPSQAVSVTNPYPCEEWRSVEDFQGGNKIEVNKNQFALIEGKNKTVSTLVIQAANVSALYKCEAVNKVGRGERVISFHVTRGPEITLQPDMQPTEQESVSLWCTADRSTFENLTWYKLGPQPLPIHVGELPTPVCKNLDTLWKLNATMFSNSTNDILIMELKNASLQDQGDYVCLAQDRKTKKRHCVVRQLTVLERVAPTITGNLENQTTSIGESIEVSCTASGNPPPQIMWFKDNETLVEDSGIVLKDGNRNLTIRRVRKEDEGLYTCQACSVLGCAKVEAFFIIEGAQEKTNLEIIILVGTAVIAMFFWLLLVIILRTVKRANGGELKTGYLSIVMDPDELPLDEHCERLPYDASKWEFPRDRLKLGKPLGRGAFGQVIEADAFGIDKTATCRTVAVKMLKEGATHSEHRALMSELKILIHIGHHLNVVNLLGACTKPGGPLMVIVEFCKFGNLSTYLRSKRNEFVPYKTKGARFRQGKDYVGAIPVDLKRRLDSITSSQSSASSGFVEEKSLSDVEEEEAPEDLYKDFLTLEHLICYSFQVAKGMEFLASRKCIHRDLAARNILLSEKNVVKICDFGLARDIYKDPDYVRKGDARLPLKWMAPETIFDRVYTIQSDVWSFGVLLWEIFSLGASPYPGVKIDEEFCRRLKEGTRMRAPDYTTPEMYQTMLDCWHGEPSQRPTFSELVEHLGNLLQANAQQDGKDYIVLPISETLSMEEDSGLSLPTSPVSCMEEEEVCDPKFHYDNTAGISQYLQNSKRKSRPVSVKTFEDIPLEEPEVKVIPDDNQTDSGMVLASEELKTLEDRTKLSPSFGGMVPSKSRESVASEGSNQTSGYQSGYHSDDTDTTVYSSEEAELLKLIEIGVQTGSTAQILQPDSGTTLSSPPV
T1 sequence (O14786 22-923): as the sequence (O14786 22-923) above
T3 sequence (P35968 20-1356): as the sequence (P35968 20-1356) above

GST-Ex 7+8: GST fusion protein containing the peptide encoded by VEGF165 exons 7 and 8 (PCGPCSERRKHLFVQDPQTCKCSCKNTDSRCKARQLELNERTCRCDKPRR; cysteine pairing not given here; also: GST fusion protein, side of fusion not given here)
inhibition of 125I-VEGF165 binding to HUVEC [1]: 85-95%
inhibition of 125I-VEGF165 binding to 231 cells ([2]; 125I-VEGF165 5 ng/ml, increasing concentrations of fusion protein, FIG. 3B): 97-98%
VEGF165 binding to 231 breast cancer cells (in words) ([2]; cells express VEGF165R and not KDR/Flk-1): inhibits
inhibition of 125I-VEGF165 binding to PAE-KDR cells (in words) [3]: did not inhibit
inhibition of the mitogenic activity of VEGF121 for HUVEC [4]: about 50%
inhibition of VEGF125-mediated HUVEC proliferation ([4]; 15 ug/ml, FIG. 7): about 2 fold
direct binding to KDR/Flk-1 on HUVEC (in words) [5]: not and does not bind directly
